In general, stoichiometry N refers to the number of molecules, sites or subunits per partner or assembly.

Results on one substance are retold here after publication PMC6488028.

The target in the assay is GenB1 (aminotransferase involved in C6'-amination, Micromonospora echinospora) (Micromonospora echinospora). Nature of the assay: crystal structure.

The substance “GenB1 (aminotransferase involved in C6'-amination, Micromonospora echinospora) (enzyme)” showed a stoichiometry N of 2.
